Substitutions are numbered along the chain they refer to.
B1: BH2-B11 全抗体 (full antibody, human IgG1/kappa) (antibody, V domains shown)
VH: EVQLVESGGGLVQPGGSLRLSCAASGLTWSDSYKHWVRQAPGKGLEWVHWNSTYGGSTYYADSVKGRFTISADTSKNTAYLQMNSLRAEDTAVYYCARRHFASTWDYWGQGTLVTVSS
VL: DIQMTQSPSSLSASVGDRVTITCRASQNIHNSLAWYQQKPGKAPKLLIYGASSLESGVPSRFSGSGSGTDFTLTISSLQPEDFATYYCQQERRVPWTFGQGTKVEIKR
notes: Full antibody expressed in HEK293E from vector pTSE
B2: AC9-E3 全抗体 (full antibody, human IgG1/kappa) (antibody, V domains shown)
VH: B1 VH with L27C, Y33W, K34D, H49D, W50Y, N51E, F101W, A102N, S103A, W105F
VL: B1 VL with N28S, S32Y, G50S, S53N, E55P, E91G, R92L, R93H, V94T, W96P
notes: as for B1
B3: AH10-E3 全抗体 (full antibody, human IgG1/kappa) (antibody, V domains shown)
VH: EVQLVESGGGLVQPGGSLRLSCAASGWTLSDSLQHWVRQAPGKGLEWVGFQSAYGGSTYYADSVKGRFTISADTSKNTAYLQMNSLRAEDTAVYYCARRHYYTAWDYWGQGTLVTVSS
VL: B1 VL with N28S, S32Y, G50S, S53N, E55P, E91G, R92L, R93H, V94T, W96P
notes: as for B1
B4: AH10-B11 全抗体 (full antibody, human IgG1/kappa) (antibody, V domains shown)
VH: B3 VH
VL: B1 VL
notes: Full antibody expressed in HEK293E from vector pTSE; also called AH10-811
B5: BH2-E3 全抗体 (full antibody, human IgG1/kappa) (antibody, V domains shown)
VH: B1 VH
VL: B1 VL with N28S, S32Y, G50S, S53N, E55P, E91G, R92L, R93H, V94T, W96P
notes: as for B1
B6: AC9-B11 全抗体 (full antibody, human IgG1/kappa) (antibody, V domains shown)
VH: B1 VH with L27C, Y33W, K34D, H49D, W50Y, N51E, F101W, A102N, S103A, W105F
VL: B1 VL
notes: as for B1

What follows are binders tested against T1, PD-L1 (UniProt Q9NZQ7 19-238, limits assumed) (assay: cell-based or functional assay).
T1 sequence (Q9NZQ7 19-238 limits assumed): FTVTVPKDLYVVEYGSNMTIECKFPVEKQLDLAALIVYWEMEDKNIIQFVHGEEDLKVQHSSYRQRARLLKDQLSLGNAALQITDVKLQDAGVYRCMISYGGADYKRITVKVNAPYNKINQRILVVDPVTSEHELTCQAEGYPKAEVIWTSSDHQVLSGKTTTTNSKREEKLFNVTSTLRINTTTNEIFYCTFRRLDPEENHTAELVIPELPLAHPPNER
With B1 the “EC50(ng/ml), 混合淋巴细胞反应(MLR), CD4+ T细胞增殖 (cck8)” value (“EC50(ng/ml), 混合淋巴细胞反应(MLR)” below) was 6.73 ng/mL.
In the case of B2, the “EC50(ng/ml), 混合淋巴细胞反应(MLR)” value is reported as 11.9 ng/mL.
For B3, the “EC50(ng/ml), 混合淋巴细胞反应(MLR)” value was 11.4 ng/mL.
B4 was tested, and the “EC50(ng/ml), 混合淋巴细胞反应(MLR)” value was 9.88 ng/mL.
With B5 the “EC50(ng/ml), 混合淋巴细胞反应(MLR)” value was 7.71 ng/mL.
In the case of B6, the “EC50(ng/ml), 混合淋巴细胞反应(MLR)” value is reported as 7.58 ng/mL.

Each binder was assayed against T1, PD-L1 (assay: ELISA, PD-L1 coated 100 ng/well, full antibody titrated from 1 ug/ml, Anti-Human Fc-HRP).
Binder B1 has an EC50 of 0.535 ng/mL.
For B2, the EC50 was 2.17 ng/mL.
B3 gave an EC50 of 1.91 ng/mL.
B4 gave an EC50 of 1.43 ng/mL.
B5 gave an EC50 of 1.23 ng/mL.
In the case of B6, the EC50 is reported as 0.574 ng/mL.

Each binder was assayed against T2, PD-L1-Fc (UniProt Q9NZQ7 19-238, limits assumed) (assay: competition ELISA, PD-L1-Fc coated 200 ng/well, competitor PD-1-His 5 ug/ml, anti-His-HRP).
T2 construct: not shown: Fc part
T2 sequence (Q9NZQ7 19-238 limits assumed): as above
For B1, the IC50 was 61.2 ng/mL.
Binder B2 has an IC50 of 138 ng/mL.
B3 gave an IC50 of 136 ng/mL.
In the case of B4, the IC50 is reported as 108 ng/mL.
In the case of B5, the IC50 is reported as 92.7 ng/mL.
B6 showed an IC50 of 82 ng/mL.

— CN110974958A (BEIJING DONGFANG BIOTECH CO LTD, dated 2020)
